Measured values reported in patent publication US20110280881A1 (RIKEN, published 2011).

Key:
mouse HSP90β (NP-032328) = molecular target: T1, mouse HSP90β (NP-032328) (mouse, UniProt P11499 2-724); assay: antibody bound to living DC2.4 cells, lysis, Protein G-Sepharose, blot
T1 construct: whole, on cells; also called cell surface HSP90β
Experimental: (§1) Mammalian HSP90 occurs in two isoforms: HSP90α and β. The following experiment was performed to determine whether not only HSP90α but also HSP90β is recognized by the antibody of the present invention. […] After being thoroughly washed to remove the unreacted antibody, the cells were lysed; the lysate was centrifuged at 10,000×g, and the resulting supernatant was incubated along with Protein G-Sepharose. The bound material was subjected to SDS-PAGE, after which blotting was performed using an anti-HSP90α antibody (SPS-771, Assay designs), an anti-HSP90β antibody (PB-118-P1, Neomarkers), or an antibody that recognizes both HSP90α and β (6B1C4, another antibody obtained in Example 1).

mouse HSP90α (NP-034610) = molecular target: T2, mouse HSP90α (NP-034610) (mouse, UniProt P07901 2-733); assay: as above
T2 construct: whole, on cells; also called cell surface HSP90α
Experimental: as §1

T1 sequence (P11499 2-724): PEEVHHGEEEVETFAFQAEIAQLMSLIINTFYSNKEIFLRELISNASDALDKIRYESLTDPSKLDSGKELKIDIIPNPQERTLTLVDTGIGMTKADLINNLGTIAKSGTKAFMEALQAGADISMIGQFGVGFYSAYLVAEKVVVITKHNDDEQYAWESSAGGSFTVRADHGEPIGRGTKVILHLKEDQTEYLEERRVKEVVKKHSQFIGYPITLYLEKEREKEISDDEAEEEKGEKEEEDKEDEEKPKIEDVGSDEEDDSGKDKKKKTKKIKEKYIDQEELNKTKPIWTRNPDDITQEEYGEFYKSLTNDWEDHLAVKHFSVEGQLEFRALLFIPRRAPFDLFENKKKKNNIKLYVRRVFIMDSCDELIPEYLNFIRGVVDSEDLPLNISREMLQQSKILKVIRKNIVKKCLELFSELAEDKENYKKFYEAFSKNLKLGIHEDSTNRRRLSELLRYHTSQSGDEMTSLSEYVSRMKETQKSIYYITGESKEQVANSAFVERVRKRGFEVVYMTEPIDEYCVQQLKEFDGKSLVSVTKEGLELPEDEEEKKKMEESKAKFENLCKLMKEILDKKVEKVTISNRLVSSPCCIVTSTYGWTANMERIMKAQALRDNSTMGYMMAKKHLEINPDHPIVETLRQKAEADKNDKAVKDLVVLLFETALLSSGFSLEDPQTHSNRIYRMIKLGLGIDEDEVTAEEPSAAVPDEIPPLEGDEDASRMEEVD

binding result (mouse HSP90β (NP-032328)): binds
binding result (mouse HSP90α (NP-034610)): binds
B1: 6H8D2 anti-HSP90 monoclonal antibody (hybridoma FERM BP-11222) (antibody, V domains shown)
VH: QVQLQQSGPELVKPGASVRISCKASGYTFTSYYIHWVKQRPGQGLEWIGWIYPGNVNTKYNEKFKGKATLTADKSSSTAYMQLSSLTSEDSAVYFCARYGNYPFAYWGQGTLVTVSA
VL: DVVMTQTPLSLPVSLGDQASISCRSSQSLVHSNGNTYLHWYLQKPGQSPKLLIYKVSNRFSGVPDRFSGSGSGTDFTLKISRVEAEDLGVYFCSQSTHVPPTFGGGTKLEIKR
notes: Mouse monoclonal IgG from a hybridoma; Normal mouse IgG2a served as its control; It was biotinylated for FACS; also called 6H8 antibody; 6H8 mAb
